In patent publication EP4650366A1 (Beijing Tuo Jie Biopharmaceutical Co. Ltd., dated 2025):
Positions count from the first letter of the chain named. Names and notes keep the numbering of the source. Where two headings read alike, the source gives them in different places. Values belong to the binder of their own block, whether it stands above or below them.

How the values were obtained:
[1] = target: T1, Human GARP-TGFβ1 complex (human, UniProt Q14392 20-627; P01137 30-390); experiment: SPR (Biacore T200), method of Example 4
T1 construct: Soluble recombinant complex, co-expressed in ExpiCHO cells and purified; also called human GARP/TGFβ1 protein

[2] = target: T2, Mouse GARP-TGFβ1 complex (mouse, UniProt G3XA59 18-628; P04202 30-390); experiment: SPR (Biacore T200), method of Example 4
T2 construct: Soluble recombinant complex, co-expressed in ExpiCHO cells and purified; also called Murine GARP-TGFβ1 complex

[3] = target: T1, Human GARP-TGFβ1 complex; experiment: SPR, method of Example 4; reference H27; antigen not given, taken as the human GARP-TGFβ1 complex as in Table 11
[4] = target: T1, Human GARP-TGFβ1 complex; experiment: SPR (Biacore T200), method of Example 4; remark: listed apart in the source
[5] = target: T3, human GARP-TGFβ1 complex expressed by transfected cells (human, UniProt P01137 30-390; Q14392 20-662); experiment: flow cytometry on transfected HEK293E cells, 10 nM antibody
T3 construct: whole, on cells; also called TGFβ1-GARP complex; TGFβ1 + GARP

[6] = target: T4, mouse TGFβ1 expressed by transfected cells (mouse, UniProt P04202 30-390); experiment: as above
T4 construct: whole, on cells; also called mTGFβ1; murine TGFβ1

[7] = target: T5, mouse GARP-TGFβ1 complex expressed by transfected cells (mouse, UniProt P04202 30-390; G3XA59 18-663); experiment: as above
T5 construct: whole, on cells; also called mTGFβ1-mGARP complex; mTGFβ1 + mGARP

[8] = target: T6, human TGFβ1 expressed by transfected cells (human, UniProt P01137 30-390); experiment: as above
T6 construct: whole, on cells; also called human pro-TGFβ1

[9] = target: T7, human GARP-TGFβ2 complex expressed by transfected HEK293E cells (human, UniProt P61812 21-414; Q14392 20-662); experiment: flow cytometry on transfected HEK293E cells, FITC anti-human Fc
T7 construct: whole, on cells; also called TGFβ2-GARP complex; TGFβ2 + GARP
T7 sequence (looked up) 1: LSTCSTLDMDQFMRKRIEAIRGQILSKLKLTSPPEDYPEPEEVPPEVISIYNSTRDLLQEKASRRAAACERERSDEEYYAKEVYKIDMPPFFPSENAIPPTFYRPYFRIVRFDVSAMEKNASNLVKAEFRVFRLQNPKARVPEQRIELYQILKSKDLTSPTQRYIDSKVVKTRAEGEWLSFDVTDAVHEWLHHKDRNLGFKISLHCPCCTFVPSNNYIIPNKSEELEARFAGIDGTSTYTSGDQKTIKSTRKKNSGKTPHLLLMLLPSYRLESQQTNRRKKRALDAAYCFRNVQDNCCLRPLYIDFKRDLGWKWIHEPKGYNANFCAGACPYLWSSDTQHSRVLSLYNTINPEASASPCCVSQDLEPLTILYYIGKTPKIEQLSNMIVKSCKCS
T7 sequence (looked up) 2: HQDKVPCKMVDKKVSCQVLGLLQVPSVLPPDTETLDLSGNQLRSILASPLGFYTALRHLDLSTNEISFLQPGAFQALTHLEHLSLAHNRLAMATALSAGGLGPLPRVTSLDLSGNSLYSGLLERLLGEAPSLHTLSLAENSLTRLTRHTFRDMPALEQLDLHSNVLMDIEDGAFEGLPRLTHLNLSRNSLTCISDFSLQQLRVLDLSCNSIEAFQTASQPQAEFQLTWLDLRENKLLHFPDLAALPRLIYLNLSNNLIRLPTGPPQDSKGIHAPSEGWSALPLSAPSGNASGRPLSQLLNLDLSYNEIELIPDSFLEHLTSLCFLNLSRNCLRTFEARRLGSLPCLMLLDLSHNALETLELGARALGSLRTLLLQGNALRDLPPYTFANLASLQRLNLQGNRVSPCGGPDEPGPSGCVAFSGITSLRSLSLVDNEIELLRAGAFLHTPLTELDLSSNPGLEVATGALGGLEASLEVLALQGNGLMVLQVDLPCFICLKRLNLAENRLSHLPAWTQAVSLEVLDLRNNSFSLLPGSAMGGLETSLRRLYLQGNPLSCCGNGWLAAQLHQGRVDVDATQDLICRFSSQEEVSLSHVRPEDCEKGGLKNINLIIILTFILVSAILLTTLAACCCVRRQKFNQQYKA

[10] = target: T8, human TGFβ2 expressed by transfected HEK293E cells (human, UniProt P61812 21-414); experiment: as above
T8 construct: whole, on cells
T8 sequence (looked up): T7 sequence (looked up) 1

T1 sequence (P01137 30-390 limits assumed, one chain of several): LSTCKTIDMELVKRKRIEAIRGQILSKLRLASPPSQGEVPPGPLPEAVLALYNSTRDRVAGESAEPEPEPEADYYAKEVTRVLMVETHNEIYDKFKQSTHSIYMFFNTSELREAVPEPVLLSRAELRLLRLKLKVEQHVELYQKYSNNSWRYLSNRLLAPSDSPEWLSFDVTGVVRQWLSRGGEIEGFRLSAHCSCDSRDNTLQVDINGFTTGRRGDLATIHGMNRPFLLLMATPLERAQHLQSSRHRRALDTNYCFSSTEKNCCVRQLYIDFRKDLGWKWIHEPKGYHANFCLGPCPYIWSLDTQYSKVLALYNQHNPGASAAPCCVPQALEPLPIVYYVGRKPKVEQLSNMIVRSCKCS
T2 sequence (G3XA59 other isoform, or with tags, fused parts or gaps limits assumed, chain 1 of 2): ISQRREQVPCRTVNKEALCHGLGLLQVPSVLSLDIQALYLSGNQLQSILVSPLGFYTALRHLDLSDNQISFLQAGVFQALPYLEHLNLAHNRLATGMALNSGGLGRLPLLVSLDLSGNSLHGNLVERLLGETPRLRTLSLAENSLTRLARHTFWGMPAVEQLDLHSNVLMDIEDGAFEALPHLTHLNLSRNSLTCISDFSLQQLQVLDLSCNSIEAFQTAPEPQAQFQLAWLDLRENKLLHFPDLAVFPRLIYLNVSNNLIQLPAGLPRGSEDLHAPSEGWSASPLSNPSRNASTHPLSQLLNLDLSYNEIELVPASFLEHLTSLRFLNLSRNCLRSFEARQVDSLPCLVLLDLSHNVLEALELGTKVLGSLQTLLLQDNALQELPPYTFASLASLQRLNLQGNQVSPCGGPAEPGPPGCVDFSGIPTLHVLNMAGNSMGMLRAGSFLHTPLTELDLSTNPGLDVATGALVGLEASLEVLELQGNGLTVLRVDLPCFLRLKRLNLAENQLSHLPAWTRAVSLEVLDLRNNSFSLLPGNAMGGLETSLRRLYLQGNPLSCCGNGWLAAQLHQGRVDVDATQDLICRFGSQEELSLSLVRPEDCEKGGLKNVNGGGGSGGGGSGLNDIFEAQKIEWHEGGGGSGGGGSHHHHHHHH
T2 sequence (P04202 30-390 limits assumed, chain 2 of 2): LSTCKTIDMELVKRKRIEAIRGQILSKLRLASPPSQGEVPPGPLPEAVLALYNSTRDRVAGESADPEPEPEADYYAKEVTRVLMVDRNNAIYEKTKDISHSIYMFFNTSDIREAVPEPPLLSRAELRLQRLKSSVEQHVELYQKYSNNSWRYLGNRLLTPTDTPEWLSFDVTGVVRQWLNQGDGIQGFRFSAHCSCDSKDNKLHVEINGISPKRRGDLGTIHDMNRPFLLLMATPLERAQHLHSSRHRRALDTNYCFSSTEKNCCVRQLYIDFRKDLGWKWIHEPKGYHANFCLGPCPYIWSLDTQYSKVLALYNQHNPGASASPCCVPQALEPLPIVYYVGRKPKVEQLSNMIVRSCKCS
T4 sequence (P04202 30-390): as the sequence (P04202 30-390 limits assumed, chain 2 of 2) above
T5 sequence (P04202 30-390, chain 1 of 2): as the sequence (P04202 30-390 limits assumed, chain 2 of 2) above
T5 sequence (G3XA59 18-663, chain 2 of 2): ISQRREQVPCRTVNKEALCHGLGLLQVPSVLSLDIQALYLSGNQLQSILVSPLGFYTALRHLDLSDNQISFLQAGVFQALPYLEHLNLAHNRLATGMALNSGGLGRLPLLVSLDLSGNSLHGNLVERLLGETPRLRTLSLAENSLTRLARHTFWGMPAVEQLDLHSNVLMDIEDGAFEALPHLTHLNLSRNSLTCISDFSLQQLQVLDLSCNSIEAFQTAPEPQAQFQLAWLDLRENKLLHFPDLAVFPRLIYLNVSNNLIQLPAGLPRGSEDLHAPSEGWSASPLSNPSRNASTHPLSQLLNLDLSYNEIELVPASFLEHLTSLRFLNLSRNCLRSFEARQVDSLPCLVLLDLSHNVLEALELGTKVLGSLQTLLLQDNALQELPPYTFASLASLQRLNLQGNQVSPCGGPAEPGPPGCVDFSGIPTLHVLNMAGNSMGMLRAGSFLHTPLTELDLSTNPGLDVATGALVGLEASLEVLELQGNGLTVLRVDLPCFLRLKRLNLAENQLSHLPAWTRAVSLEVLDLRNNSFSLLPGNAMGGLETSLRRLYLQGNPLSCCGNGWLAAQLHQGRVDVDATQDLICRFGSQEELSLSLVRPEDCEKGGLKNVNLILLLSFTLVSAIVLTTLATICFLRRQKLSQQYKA
T6 sequence (P01137 30-390): as the sequence (P01137 30-390 limits assumed, one chain of several) above
T3 sequence (P01137 30-390, one chain of several): as the sequence (P01137 30-390 limits assumed, one chain of several) above

B1: Ab6 (antibody, V domains shown)
VH: QVQLVESGGGVVQPGRSLRLSCAASGFAFSSYGMHWVRQAPGKGLEWVAVISYDGNNKYYADSVKGRFTISRDNSKNTLYLQMNSLRAEDTAVYYCARDLLVRFLEWSHKYGMDVWGQGTTVTVSS
VL: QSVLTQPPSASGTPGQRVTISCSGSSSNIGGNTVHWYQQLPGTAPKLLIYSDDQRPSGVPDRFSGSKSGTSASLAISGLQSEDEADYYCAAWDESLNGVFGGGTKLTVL
Kd [1]: 332 pM | koff [1]: 0.000138 s⁻¹ | kon [1]: 417000 M⁻¹ s⁻¹ | Kd [2]: 226 pM | koff [2]: 0.000106 s⁻¹ | kon [2]: 469000 M⁻¹ s⁻¹

B2: SL2-2 (antibody, human IgG4 S228P, kappa, V domains shown)
VH: not shown
VL: DIQMTQSPSSLSASVGDRVTITCRASQFISDYLNWYQQKPGKAPKLLIYTASYLDSGVPSRFSGSGSGTDFTLTISSLQPEDFATYYCQQSYSTPLTFGGGTKLEIKR
notes: Human IgG4-S228P/kappa, H27 heavy chain
fold affinity over H27 [3]: 5 fold | Kd [4]: 135 pM | koff [4]: 5.24e-05 s⁻¹ | kon [4]: 387000 M⁻¹ s⁻¹

B6: SL2-12 (antibody, human IgG4 S228P, kappa, V domains shown)
VH: not shown
VL: B2 VL with F28Y, T50S
notes: as for B2
fold affinity over H27 [3]: 5 fold | Kd [4]: 266 pM | koff [4]: 8.51e-05 s⁻¹ | kon [4]: 320000 M⁻¹ s⁻¹

Continued by falling Kd [4], values first:

fold affinity over H27 [3]: 5 fold | Kd [4]: 475 pM | koff [4]: 8.54e-05 s⁻¹ | kon [4]: 180000 M⁻¹ s⁻¹
B5: SL2-9 (antibody, human IgG4 S228P, kappa, V domains shown)
VH: not shown
VL: B2 VL with D31P, T50A, Y53E, D55E
notes: as for B2

fold affinity over H27 [3]: 5 fold | Kd [4]: 362 pM | koff [4]: 6.95e-05 s⁻¹ | kon [4]: 192000 M⁻¹ s⁻¹
B3: SL2-19 (antibody, human IgG4 S228P, kappa, V domains shown)
VH: not shown
VL: B2 VL with F28A, D31P, T50A, Y53E, D55E
notes: as for B2

binding result [5]: binds | binding result [6]: binds | binding result [7]: binds | binding result [8]: binds | fold affinity over H27 [3]: 5 fold | binding result [9]: no binding (tested: 10 nM) | binding result [10]: no binding (tested: 10 nM) | Kd [4]: 161 pM | koff [4]: 6.08e-05 s⁻¹ | kon [4]: 379000 M⁻¹ s⁻¹ | Kd [1]: 254 pM | koff [1]: 9.5e-05 s⁻¹ | kon [1]: 375000 M⁻¹ s⁻¹ | Kd [2]: 228 pM | koff [2]: 8.86e-05 s⁻¹ | kon [2]: 389000 M⁻¹ s⁻¹
B4: SL2-22 (antibody, human IgG4 S228P, kappa, V domains shown)
VH: not shown
VL: B2 VL with F28S
notes: Human IgG4-S228P/kappa, H27 heavy chain; also called TGFβ1 monoclonal antibody SL2-22; anti-human TGFβ1 antibody SL2-22
